Test results published in article PMC7239026, “PepO is a target of the two-component systems VicRK and CovR required for systemic virulence of Streptococcus mutans” (Virulence, 2020).

What was measured:
[1] = biological target: T1, human C4b-binding protein (C4BP) (human, UniProt P04003 49-597; P20851 18-252); test: ELISA; human glycoproteins coated on 96-well plates (5 ug/mL in 75 mM sodium carbonate buffer pH 9.6, 18 h at 4°C); blocked with 3% fish gelatin; rPepO (10 to 50 ug/mL) or rCnmA (0.125 to 2 ug/mL) in 50 mM HEPES pH 7.4, 150 mM NaCl, 2 mM CaCl2, 50 ug/mL BSA, 2 h at 37°C; bound protein detected with rabbit antiserum and peroxidase conjugate, A450 nm; wells with 1% BSA as control; conditions: both partners purified
T1 construct: Named only as a whole ('a multimeric glycoprotein'); source: bought: Athens Research & Technology
T1 sequence (looked up) 1: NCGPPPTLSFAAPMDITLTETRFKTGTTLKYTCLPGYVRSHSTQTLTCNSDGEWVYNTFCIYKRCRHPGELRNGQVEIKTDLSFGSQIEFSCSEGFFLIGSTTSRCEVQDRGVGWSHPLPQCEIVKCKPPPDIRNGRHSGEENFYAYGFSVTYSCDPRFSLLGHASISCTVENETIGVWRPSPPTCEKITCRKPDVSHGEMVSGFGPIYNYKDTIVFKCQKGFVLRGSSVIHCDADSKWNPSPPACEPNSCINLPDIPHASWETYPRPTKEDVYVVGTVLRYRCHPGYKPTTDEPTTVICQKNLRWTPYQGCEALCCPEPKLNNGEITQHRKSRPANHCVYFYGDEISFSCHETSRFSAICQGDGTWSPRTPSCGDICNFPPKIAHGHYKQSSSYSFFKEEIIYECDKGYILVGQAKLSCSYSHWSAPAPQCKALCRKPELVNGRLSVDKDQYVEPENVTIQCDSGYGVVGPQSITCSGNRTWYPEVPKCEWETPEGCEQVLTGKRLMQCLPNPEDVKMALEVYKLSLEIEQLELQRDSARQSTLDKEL
T1 sequence (looked up) 2: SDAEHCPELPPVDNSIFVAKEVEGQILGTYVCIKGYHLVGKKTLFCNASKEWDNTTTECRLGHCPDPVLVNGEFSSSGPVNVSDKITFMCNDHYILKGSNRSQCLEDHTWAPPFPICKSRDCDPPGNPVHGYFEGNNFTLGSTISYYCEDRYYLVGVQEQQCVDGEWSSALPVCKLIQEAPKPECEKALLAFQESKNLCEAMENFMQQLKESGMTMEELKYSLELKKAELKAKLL

[2] = biological target: T2, human complement protein C1q (human, UniProt P02745 23-245; P02746 28-253; P02747 29-245); test: as above; conditions: both partners purified
T2 construct: Complement C1q subcomponent subunit A, human; Complement C1q subcomponent subunit B, human; Complement C1q subcomponent subunit C, human; Named only as a whole; source: bought: Calbiochem
T2 sequence (P02745 23-245, chain 1 of 3): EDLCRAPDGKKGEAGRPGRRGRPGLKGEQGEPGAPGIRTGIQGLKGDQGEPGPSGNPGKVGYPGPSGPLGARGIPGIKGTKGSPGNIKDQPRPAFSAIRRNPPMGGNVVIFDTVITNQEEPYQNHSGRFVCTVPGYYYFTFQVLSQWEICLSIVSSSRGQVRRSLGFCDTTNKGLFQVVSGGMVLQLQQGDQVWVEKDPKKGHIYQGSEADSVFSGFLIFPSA
T2 sequence (P02746 28-253, chain 2 of 3): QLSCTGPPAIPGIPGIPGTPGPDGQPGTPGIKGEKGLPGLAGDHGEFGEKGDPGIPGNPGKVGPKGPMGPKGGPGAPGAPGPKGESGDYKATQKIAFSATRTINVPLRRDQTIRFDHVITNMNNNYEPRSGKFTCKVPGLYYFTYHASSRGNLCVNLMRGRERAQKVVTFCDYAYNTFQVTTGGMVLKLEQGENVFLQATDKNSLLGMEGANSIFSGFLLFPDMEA
T2 sequence (P02747 29-245, chain 3 of 3): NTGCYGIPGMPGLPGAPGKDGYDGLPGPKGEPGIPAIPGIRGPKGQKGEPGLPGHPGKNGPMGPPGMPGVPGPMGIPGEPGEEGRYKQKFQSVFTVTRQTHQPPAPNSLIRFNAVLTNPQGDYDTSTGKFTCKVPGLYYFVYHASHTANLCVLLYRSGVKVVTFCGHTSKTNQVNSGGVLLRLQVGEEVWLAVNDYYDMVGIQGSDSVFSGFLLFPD

B1: His-tagged PepO recombinant protein (rPepO), endopeptidase O of Streptococcus mutans (natural protein)
chain: MVRLQDDFYNAVNGQWEEAAVIPDDKPRTGGFSDLADDIEDLMLETTDKWLDGKDVPDDSILQNFVKFHRQVADYDAREETGVKPVLPLIEEYKSLTSFADFASNIATYEMAGKPNELPFGVAPDFMNAQMNVLWAEAPNLILPDTTYYAEGNDKGKELLAKWRTMQEELLPKFGFEEAEIKDLLDKVLTLDAKLAQYVLSSEESSEYVKLYHPYDWADFTKLTPELPLDAIFTQILGQKPDKVIVPEERFWTNFAAEFYSEKNWPFLKATLVLAAASSYNSYLTDDIRILSGSYNRALSGTPQAMGKKKAAFYLAQGPYNQALGLWYAGEKFSPEAKKDVEAKVATMIEVYKERLHKTDWLAQETRNKAITKLNVITPHIGYPEQLPKTYAQKIIDDNLSLVENAQNLAKISIAYNWSKWNQPVDRSEWHMPAHMVNAYYDPQQNQIVFPAAILQAPFYSLEQSSSANYGGIGAVIAHEISHAFDTNGASFDENGSLNNWWTDEDYAAFKKRTDRVVEQFEGLDSYGAKVNGQLTVSENVADLGGLACALEAAKREADFSVRDFFINFATIWRMKARDEYMQMLASIDVHAPAKWRTNVTITNFDEFHQEFAVKEGDGMWRDEDKRVIIW
notes: PepO (endopeptidase O) of Streptococcus mutans strain UA159; entire PepO coding region (1896 bp) amplified from UA159 genomic DNA and cloned into pET-16B; Vector pET-16B; also called full-length PepO; source: E. coli BL21, purified under native conditions (Ni-NTA), dialyzed in PBS
[1]
  binding result: binds
[2]
  binding result: binds
